The values that follow are results of earlier work, collected in PMC4610346.

In this data set the target is Jun leucine zipper (Homo sapiens) (UniProt P05412).
Sequence of Jun leucine zipper (Homo sapiens) (P05412 277-311): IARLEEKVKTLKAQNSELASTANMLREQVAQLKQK

Sequence of Fos leucine zipper (P01100 162-196): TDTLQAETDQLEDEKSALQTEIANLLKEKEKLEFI

By Kd is commonly meant the free concentration of one partner at which half of the binding sites on the other are occupied at equilibrium, for simple one-to-one binding. Take “Fos leucine zipper (from UniProt P01100)”: the Kd is 54 nM.
